Data taken from article PMC4432310, “Different Ligands of the TRPV3 Cation Channel Cause Distinct Conformational Changes as Revealed by Intrinsic Tryptophan Fluorescence Quenching*” (The Journal of Biological Chemistry, 2015).

How the values were obtained:
[1] = biological target: the molecule itself; assay: SEC; fluorescence detection SEC (FSEC) of detergent-solubilized crude Sf9 membranes on Superose 6 10/300 GL; buffer A (200 mM NaCl, 50 mM Tris, pH 7.5) with DM, DDM or LDAO at ~1.5 x CMC; oligomer judged from the retention volume
[2] = biological target: the molecule itself; assay: SEC; UV detection SEC of hTRPV3 eluted from the GFP trap, Superose 6 10/300 GL; buffer B (100 mM NaCl, 10 mM Tris, pH 7.5) with 0.03% DDM and 0.1% CHAPS

B1: human TRPV3 fused to C-terminal GFP and His8 tag (natural protein, UniProt Q8NET8 1-790, looked up)
chain: MKAHPKEMVPLMGKRVAAPSGNPAILPEKRPAEITPTKKSAHFFLEIEGFEPNPTVAKTSPPVFSKPMDSNIRQCISGNCDDMDSPQSPQDDVTETPSNPNSPSAQLAKEEQRRKKRRLKKRIFAAVSEGCVEELVELLVELQELCRRRHDEDVPDFLMHKLTASDTGKTCLMKALLNINPNTKEIVRILLAFAEENDILGRFINAEYTEEAYEGQTALNIAIERRQGDIAALLIAAGADVNAHAKGAFFNPKYQHEGFYFGETPLALAACTNQPEIVQLLMEHEQTDITSRDSRGNNILHALVTVAEDFKTQNDFVKRMYDMILLRSGNWELETTRNNDGLTPLQLAAKMGKAEILKYILSREIKEKRLRSLSRKFTDWAYGPVSSSLYDLTNVDTTTDNSVLEITVYNTNIDNRHEMLTLEPLHTLLHMKWKKFAKHMFFLSFCFYFFYNITLTLVSYYRPREEEAIPHPLALTHKMGWLQLLGRMFVLIWAMCISVKEGIAIFLLRPSDLQSILSDAWFHFVFFIQAVLVILSVFLYLFAYKEYLACLVLAMALGWANMLYYTRGFQSMGMYSVMIQKVILHDVLKFLFVYIVFLLGFGVALASLIEKCPKDNKDCSSYGSFSDAVLELFKLTIGLGDLNIQQNSKYPILFLFLLITYVILTFVLLLNMLIALMGETVENVSKESERIWRLQRARTILEFEKMLPEWLRSRFRMGELCKVAEDDFRLCLRINEVKWTEWKTHVSFLNEDPGPVRRTDFNKIQDSSRNNSKTTLNAFEEVEEFPETSV
notes: human TRPV3 (transient receptor potential vanilloid 3), full-length; theoretical mass of the monomer printed as 90.6 kDa; A PreScission cleavage site lies between TRPV3 and GFP-His8; The fusion is uncleaved in the FSEC runs; also called hTRPV3-GFP; hTRPV3; source: Sf9 insect cells (baculovirus), detergent-solubilized crude membranes, not purified; not shown: GFP, C-terminal, kept
- stoichiometry N [1]: 4

B2: human TRPV3, detergent-purified, GFP-His tag cleaved off (natural protein, UniProt Q8NET8 1-790, looked up)
chain: MKAHPKEMVPLMGKRVAAPSGNPAILPEKRPAEITPTKKSAHFFLEIEGFEPNPTVAKTSPPVFSKPMDSNIRQCISGNCDDMDSPQSPQDDVTETPSNPNSPSAQLAKEEQRRKKRRLKKRIFAAVSEGCVEELVELLVELQELCRRRHDEDVPDFLMHKLTASDTGKTCLMKALLNINPNTKEIVRILLAFAEENDILGRFINAEYTEEAYEGQTALNIAIERRQGDIAALLIAAGADVNAHAKGAFFNPKYQHEGFYFGETPLALAACTNQPEIVQLLMEHEQTDITSRDSRGNNILHALVTVAEDFKTQNDFVKRMYDMILLRSGNWELETTRNNDGLTPLQLAAKMGKAEILKYILSREIKEKRLRSLSRKFTDWAYGPVSSSLYDLTNVDTTTDNSVLEITVYNTNIDNRHEMLTLEPLHTLLHMKWKKFAKHMFFLSFCFYFFYNITLTLVSYYRPREEEAIPHPLALTHKMGWLQLLGRMFVLIWAMCISVKEGIAIFLLRPSDLQSILSDAWFHFVFFIQAVLVILSVFLYLFAYKEYLACLVLAMALGWANMLYYTRGFQSMGMYSVMIQKVILHDVLKFLFVYIVFLLGFGVALASLIEKCPKDNKDCSSYGSFSDAVLELFKLTIGLGDLNIQQNSKYPILFLFLLITYVILTFVLLLNMLIALMGETVENVSKESERIWRLQRARTILEFEKMLPEWLRSRFRMGELCKVAEDDFRLCLRINEVKWTEWKTHVSFLNEDPGPVRRTDFNKIQDSSRNNSKTTLNAFEEVEEFPETSV
notes: human TRPV3 (transient receptor potential vanilloid 3), full-length; theoretical mass of the monomer printed as 90.6 kDa; also called hTRPV3; detergent-purified hTRPV3; source: Sf9 insect cells (baculovirus), purified (GFP trap, PreScission cleavage, SEC) in DDM and CHAPS; not shown: GFP, C-terminal, cleaved; His8, C-terminal, cleaved
- stoichiometry N [2]: 4
